These are literature values, as cited in paper PMC8470622.

What is called Kd is the concentration at which binding is half-saturated.

Where “and” joins values, the source holds several entries; their conditions need not be identical. Equal entries are not always repeated. Where two headings read alike, the source gives them in different places.

Series [1] has as its target EGFR (Homo sapiens) (UniProt P00533).
Series [2] concerns the target EGFR (high-affinity state) (Homo sapiens) (UniProt P00533). The series can be described thus: radioligand.
The target of series [3] is EGFR (Homo sapiens) (UniProt P00533). The series can be described thus: radioligand.
Series [4] has as its target EGFR (low-affinity state) (Homo sapiens) (UniProt P00533). Briefly: radioligand.

Take EGF (from UniProt P01133): the Kd in series [1] is 0.3 nM and 0.32 nM; in series [2] it was 1.06 nM; in series [3], 1.52 nM; in series [4], 2.85 nM.
